The text below walks through data of publication PMC7153820 (Oncoimmunology, 2020).

In assay [1] the target is biotinylated recombinant human TIM-3-Fc chimera (R&D Systems 2365-TM) (human, UniProt Q8TDQ0, biotin (EZ-Link Sulfo-NHS-LC-Biotinylation kit)). In words: ELISA. For orientation: An ELISA detects its analyte on a solid surface through an enzyme-linked reagent.
The target in another assay is rhTIM-3-IgG1-Fc (human, UniProt Q8TDQ0). Nature of the assay: ELISA.
Assay [2] has as its target rhTIM-3-Fc AF647 (R&D Systems 2365-TM) (Homo sapiens (Human)., UniProt Q8TDQ0, AF647). In words: flow cytometry on cells.
In assay [3] the target is human TIM-3 on primary blood cells (Homo sapiens (Human)., UniProt Q8TDQ0). In words: flow cytometry on cells.

B1: M6903, fully human anti-TIM-3 monoclonal IgG2 antibody (antibody, V domains shown)
VH: not shown
VL: QSALTQPRSVSGSPGQSVTISCTGTSSDVGGYNYVSWYQQHPGKAPKLMIYDVSKRPSGVPDRFSGSKSGNTASLTISGLQAEDEADYYCSSYADSVVFGGGTKVTVL
Regarding B1, the IC50 in assay [1] was 7.46 ± 0.052 nM; with rhTIM-3-IgG1-Fc, 0.353 ± 0.383 nM; in assay [2] it was 4.44 ± 3.12 nM. In assay [3], the midpoint of the response, the EC50, lay at 0.74 ± 0.57 nM.

In general, IC50 refers to the point on the concentration scale where inhibition reaches its midpoint. By EC50 is commonly meant the concentration that produces a half-maximal response. A lower EC50 goes with an effect from little substance.
